Experimental findings from PMC3020078 are described below.

Where “and” joins values, the source holds several entries; their conditions need not be identical. Equal values may be shown once.

Experiment [1] concerns the target cpMVPvsvg vaults (MVP with an N-terminal cysteine rich peptide and a C-terminal VSVG tag). In words: co-IP.
The target of experiment [2] is cpMVP vaults (MVP with an N-terminal cysteine rich peptide). Kind of experiment: SAXS.

In experiment [1], “HisT7MVP vaults (MVP with N-terminal T7 tag) (from UniProt Q62667 1-861) (natural protein)” returned a stoichiometry N (HisT7MVP:cpMVPvsvg) of 0.8.

Turning to “cpMVP vaults (MVP with an N-terminal cysteine rich peptide) (natural protein)”, in experiment [2], the percent of the protein mass as full vaults was 46% and 49%.
